Source: patent US11155643B2, “Glucan kinases and methods for processing starch using the same” (University of Kentucky Research Foundation, priority 2017, dated 2021)

Assay: cellulose phosphorylation assay (33P-β-ATP radio-label incorporation into cellulose)
Type: biochemical
Conditions: FIG. 11C, 11D
Method: Next, it was tested whether phosphorylation could be directed towards cellulose, the most abundant polymer on earth, by building chimeras comprising cellulose-binding CBMs. Both the CBM30 and CBM44 were chosen from the cellulase CelJ of the thermophilic, gram-positive bacterium Clostridium thermocellum, which bind cellulose with high affinity. The engineered protein containing CtCBM30 and CtCBM44 was purified. The starch-phosphorylation assay was modified to develop an assay for measure phosphorylation of cellulose, which was obtained from Sigma-Avicel PH-101. To measure dikinase activity, the cellulose was incubated with the engineered chimeric dikinase in question along with ^33P-β-ATP, the ^33P-β-ATP and enzyme were washed out, and radio-label incorporation into the cellulose was measured.

B1: CtCBM30-StGWD: chimera of Clostridium thermocellum CelJ CBM30 and StGWD dikinase domain (protein)
chain: MGHHHHHHMEQKLISEEDLTSASSASAETVAPEGYRKLLDVQIFKDSPVVGWSGSGMGELETIGDTLPVDTTVTYNGLPTLRLNVQTTVQSGWWISLLTLRGWNTHDLSQYVENGYLEFDIKGKEGGEDFVIGFRDKVYERVYGLEIDVTTVISNYVTVTTDWQHVKIPLRDLMKINNGFDPSSVTCLVFSKRYADPFTVWFSDIKITSEDNEKSAPAIKVGVQINPVSGLPSGFQDLLHFVLDHVEDKNVETLLERLLEAREELRPLLLKPNNRLKDLLFLDIALDSTVRTAVERGYEELNNANPEKIMYFISLVLENLALSVDDNEDLVYCLKGWNQALSMSNGGDNHWALFAKAVLDRTRLALASKAEWYHHLLQPSAEYLGSILGVDQWALNIFTEEIIRAGSAASLSSLLNRLDPVLRKTANLGSWQIISPVEAVGYVVVVDELLSVQNEIYEKPTILVAKSVKGEEEIPDGAVALITPDMPDVLSHVSVRARNGKVCFATCFDPNILADLQAKEGRILLLKPTPSDIIYSEVNEIELQSSSNLVEAETSATLRLVKKQFGGCYAISADEFTSEMVGAKSRNIAYLKGKVPSSVGIPTSVALPFGVFEKVLSDDINQGVAKELQILMKKLSEGDFSALGEIRTTVLDLSAPAQLVKELKEKMQGSGMPWPGDEGPKRWEQAWMAIKKVWASKWNERAYFSTRKVKLDHDYLCMAVLVQEIINADYAFVIHTTNPSSGDDSEIYAEVVRGLGETLVGAYPGRALSFICKKKDLNSPQVLGYPSKPIGLFIKRSIIFRSDSNGEDLEGYAGAGLYDSVPMDEEEKVVIDYSSDPLITDGNFRQTILSNIARAGHAIEELYGSPQDIEGVVRDGKIYVVQTRPQM
modifications: Chimeric Protein
notes: chimera of Clostridium thermocellum CelJ CBM30 and StGWD dikinase domain
For B1, which phosphorylation of cellulose is on record?
Its phosphorylation of cellulose is “robustly phosphorylated cellulose”.
